# Experimental data: patent US11655308B2, “HM-3 fusion protein and application thereof” (TASLY BIOPHARMACEUTICALS CO., LTD., priority 2017, dated 2023)
# Where “and” joins values, the source holds several entries; their conditions need not be identical. Identical values can stand only once.
# Test: Pharmacokinetics after single subcutaneous injection (double-antibody sandwich ELISA)
# Protocol: (1) 18 SD rats (half male and half female) were purchased and fed for one week.
# (2) Rats were divided into 3 groups, half male and half female, and weight of rats were recorded respectively.
# The blood was centrifuged at 12000 rpm/min to take 200 μL of supernatant, then the supernatant was diluted with PBS solution according to a ratio of 1:3, and finally placed in an EP tube and stored in a −80° C. refrigerator.
# (4) Biological samples were measured by double-antibody sandwich ELISA.
# (1) Coating, HM-3 monoclonal antibody was diluted with a coating buffer (CBS) in certain concentration, added to an ELISA plate and coated overnight.
# (2) Plate washing, the coating buffer was discarded, and the plate was washed by PBST for 3 times, and then dried by patting.
# (3) Sealing, a blocking buffer was added for sealing at 37.5° C., the plate washing process was repeated and the plate was dried by patting.
# (4) Addition of samples to be measured, the samples to be measured were added to the ELISA plate with multiple wells, and then incubated at 37.5° C.; the plate washing process was repeated and the plate was dried by patting.
# (5) Addition of a secondary antibody, the secondary antibody diluted proportionally was added for incubation at 37.5° C. The plate washing process was repeated and the plate was dried by patting.
# (6) Addition of the enzyme-labeled secondary antibody for reaction, the HRP-labeled secondary antibody which was diluted by 5% skim milk powder solution according to certain proportion was added for incubation at 37.5° C. The plate washing process was repeated and the plate was dried by patting.
# (7) Addition of a substrate, a TMB substrate in certain volume L was added for reaction in the dark.
# (8) Termination of the reaction, a certain amount of stop buffer was added to terminate the reaction.
# (9) Detection, read OD450 nm with a microplate reader.
substance,measurement,setting,value
mIgG4-Fc-(GGGGS)3-HM-3 [TSL-4],Plasma concentration,"12.5 mg/kg sc, 20.00 h, single rats No. 1-5",1900 ng/mL and 3086 ng/mL and 5605 ng/mL and 3962 ng/mL and 12480 ng/mL
same,Plasma concentration,"12.5 mg/kg sc, 24.00 h, Mean",4248 ng/mL
same,Plasma concentration,"12.5 mg/kg sc, 24.00 h, single rats No. 1-5",1822 ng/mL and 2513 ng/mL and 2747 ng/mL and 3966 ng/mL and 10192 ng/mL
same,Plasma concentration,"12.5 mg/kg sc, 28.00 h, Mean",1907 ng/mL
same,Plasma concentration,"12.5 mg/kg sc, 28.00 h, single rats No. 1-5",336 ng/mL and 1653 ng/mL and 766 ng/mL and 2703 ng/mL and 4077 ng/mL
same,Plasma concentration,"12.5 mg/kg sc, 41.00 h, Mean",746 ng/mL
same,Plasma concentration,"12.5 mg/kg sc, 41.00 h, single rats No. 1-5",241 ng/mL and 700 ng/mL and 417 ng/mL and 1185 ng/mL and 1189 ng/mL
same,Plasma concentration,"12.5 mg/kg sc, 53.00 h, Mean",402 ng/mL
same,Plasma concentration,"12.5 mg/kg sc, 53.00 h, single rats No. 1-5",131 ng/mL and 542 ng/mL and 247 ng/mL and 734 ng/mL and 357 ng/mL
same,Plasma concentration,"12.5 mg/kg sc, 65.00 h, Mean",330 ng/mL
same,Plasma concentration,"12.5 mg/kg sc, 65.00 h, single rats No. 1-5",127 ng/mL and 396 ng/mL and 181 ng/mL and 648 ng/mL and 299 ng/mL
same,Plasma concentration,"12.5 mg/kg sc, 77.00 h, Mean",261 ng/mL
same,Plasma concentration,"12.5 mg/kg sc, 77.00 h, single rats No. 1-5",64 ng/mL and 285 ng/mL and 160 ng/mL and 505 ng/mL and 290 ng/mL
same,AUC 0-77,12.5 mg/kg single sc,116.1901 µg·h/mL
same,AUC 0-∞,12.5 mg/kg single sc,128.4302 µg·h/mL
same,MRT 0-77,12.5 mg/kg single sc,18.248 h
same,MRT 0-∞,12.5 mg/kg single sc,20.882 h
same,Tmax,12.5 mg/kg single sc,7 ± 0.707 h
same,ka,12.5 mg/kg single sc,0.247
same,t½ka (absorption half-life),12.5 mg/kg single sc,3.249 h
same,t½ke (elimination half-life),12.5 mg/kg single sc,32.321 ± 4.935 h
same,"α, ke",12.5 mg/kg single sc,0.149
same,Plasma concentration,"37.5 mg/kg sc, 0.50 h, Mean",1402 ng/mL
same,Plasma concentration,"37.5 mg/kg sc, 0.50 h, single rats No. 1-5",1180 ng/mL and 1202 ng/mL and 1816 ng/mL and 1534 ng/mL and 1277 ng/mL
same,Plasma concentration,"37.5 mg/kg sc, 1.00 h, Mean",2169 ng/mL
same,Plasma concentration,"37.5 mg/kg sc, 1.00 h, single rats No. 1-5",1974 ng/mL and 1514 ng/mL and 2370 ng/mL and 1151 ng/mL and 3838 ng/mL
same,Plasma concentration,"37.5 mg/kg sc, 3.00 h, Mean",13349 ng/mL
same,Plasma concentration,"37.5 mg/kg sc, 3.00 h, single rats No. 1-5",23044 ng/mL and 13341 ng/mL and 9819 ng/mL and 5861 ng/mL and 14678 ng/mL
same,Plasma concentration,"37.5 mg/kg sc, 5.00 h, Mean",19696 ng/mL
same,Plasma concentration,"37.5 mg/kg sc, 5.00 h, single rats No. 1-5",36313 ng/mL and 18726 ng/mL and 10891 ng/mL and 12949 ng/mL and 19600 ng/mL
same,Plasma concentration,"37.5 mg/kg sc, 6.00 h, Mean",27920 ng/mL
same,Plasma concentration,"37.5 mg/kg sc, 6.00 h, single rats No. 1-5",44277 ng/mL and 20173 ng/mL and 20450 ng/mL and 16158 ng/mL and 38541 ng/mL
same,Plasma concentration,"37.5 mg/kg sc, 7.00 h, Mean",35272 ng/mL
same,Plasma concentration,"37.5 mg/kg sc, 7.00 h, single rats No. 1-5",64960 ng/mL and 21479 ng/mL and 38009 ng/mL and 22359 ng/mL and 29552 ng/mL
same,Plasma concentration,"37.5 mg/kg sc, 8.00 h, Mean",30478 ng/mL
same,Plasma concentration,"37.5 mg/kg sc, 8.00 h, single rats No. 1-5",62784 ng/mL and 25446 ng/mL and 31080 ng/mL and 12944 ng/mL and 20137 ng/mL
same,Plasma concentration,"37.5 mg/kg sc, 10.00 h, Mean",24736 ng/mL
same,Plasma concentration,"37.5 mg/kg sc, 10.00 h, single rats No. 1-5",44656 ng/mL and 21055 ng/mL and 21153 ng/mL and 10006 ng/mL and 26810 ng/mL
same,Plasma concentration,"37.5 mg/kg sc, 12.00 h, Mean",19172 ng/mL
same,Plasma concentration,"37.5 mg/kg sc, 12.00 h, single rats No. 1-5",36576 ng/mL and 17149 ng/mL and 17361 ng/mL and 8919 ng/mL and 15856 ng/mL
same,Plasma concentration,"37.5 mg/kg sc, 16.00 h, Mean",11084 ng/mL
same,Plasma concentration,"37.5 mg/kg sc, 16.00 h, single rats No. 1-5",13903 ng/mL and 7767 ng/mL and 12942 ng/mL and 6885 ng/mL and 13925 ng/mL
same,Plasma concentration,"37.5 mg/kg sc, 20.00 h, Mean",7721 ng/mL
same,Plasma concentration,"37.5 mg/kg sc, 20.00 h, single rats No. 1-5",9514 ng/mL and 3313 ng/mL and 9915 ng/mL and 4605 ng/mL and 11259 ng/mL
same,Plasma concentration,"37.5 mg/kg sc, 24.00 h, Mean",4523 ng/mL
same,Plasma concentration,"37.5 mg/kg sc, 24.00 h, single rats No. 1-5",4801 ng/mL and 3205 ng/mL and 5617 ng/mL and 3076 ng/mL and 5918 ng/mL
same,Plasma concentration,"37.5 mg/kg sc, 28.00 h, Mean",2285 ng/mL
same,Plasma concentration,"37.5 mg/kg sc, 28.00 h, single rats No. 1-5",1952 ng/mL and 2730 ng/mL and 3953 ng/mL and 1833 ng/mL and 959 ng/mL
same,Plasma concentration,"37.5 mg/kg sc, 41.00 h, Mean",920 ng/mL
same,Plasma concentration,"37.5 mg/kg sc, 41.00 h, single rats No. 1-5",780 ng/mL and 912 ng/mL and 1824 ng/mL and 779 ng/mL and 303 ng/mL
same,Plasma concentration,"37.5 mg/kg sc, 53.00 h, Mean",407 ng/mL
same,Plasma concentration,"37.5 mg/kg sc, 53.00 h, single rats No. 1-5",431 ng/mL and 466 ng/mL and 510 ng/mL and 391 ng/mL and 237 ng/mL
same,Plasma concentration,"37.5 mg/kg sc, 65.00 h, Mean",312 ng/mL
same,Plasma concentration,"37.5 mg/kg sc, 65.00 h, single rats No. 1-5",357 ng/mL and 301 ng/mL and 370 ng/mL and 291 ng/mL and 243 ng/mL
same,Plasma concentration,"37.5 mg/kg sc, 77.00 h, Mean",215 ng/mL
same,Plasma concentration,"37.5 mg/kg sc, 77.00 h, single rats No. 1-5",269 ng/mL and 253 ng/mL and 169 ng/mL and 244 ng/mL and 138 ng/mL
same,AUC 0-77,37.5 mg/kg single sc,166.338 µg·h/mL
same,AUC 0-∞,37.5 mg/kg single sc,176.11 ± 39.59645 µg·h/mL
same,MRT 0-77,37.5 mg/kg single sc,13.988 h
same,MRT 0-∞,37.5 mg/kg single sc,15.755 h
same,Tmax,37.5 mg/kg single sc,7 ± 0.707 h
same,ka,37.5 mg/kg single sc,0.116
same,t½ka (absorption half-life),37.5 mg/kg single sc,3.079 h
same,t½ke (elimination half-life),37.5 mg/kg single sc,34.356 ± 1.578 h and 34.355 h
same,"α, ke",37.5 mg/kg single sc,0.197
same,pharmacokinetic characteristics,"4.17, 12.5, 37.5 mg/kg sc",consistent with linear pharmacokinetic characteristics
